Measurements reported in patent US20200247855A1 (published 2020).
Substitutions are numbered along the chain they refer to.

T1: CXCL11_HUMAN (human, UniProt O14625 22-94)
T1 chain: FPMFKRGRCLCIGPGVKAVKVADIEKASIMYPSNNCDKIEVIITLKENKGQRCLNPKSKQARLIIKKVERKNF

B1: P1078_IXORI (other)
chain: GSKGSSAQQSSHDSIKAEFCETNCTMKTGGKWTQCHGGCFCVHVGNETVGRCIKLDGDYDYPSSKHEE
B2: P1100_IXORI (other)
chain: GSKGSSASQSSDNSVVAKFCDTNCTINEGGKWTECKGGCFCVHVGNETVGRCMKLDGDYDYPSPKPEE
B3: P942_IXORI (other)
chain: NQLSGPQSSANSNEAVFCDTNCTQGTDEAWSGCRGDCFCVYVGNSTEGRCMMLSGDFDYSTPGAED
B4: P1095_IXORI (other)
chain: HSPVAGSEVQKLTSDPNDDIDVSYCGMNCTVVNGKSDECSENCKCLHEGDDPKGICVAITYFGDWGDPNDDPKINEATPQTQIFEKKRK
B5: P1166_IXORI (other)
chain: GPETKEDKKSDVYELFTVEYCGTNCTLLTNGRWTACTGKKGTCRCYHESGEKVGLCLSTEYTDFSEYPNPKSSEIDAAAPLPRETH
B6: P1134_IXORI (other)
chain: NEEVFTVEYCGMNCTQKSDGTWTECSGKNKDCRCYHESDAREGLCLSTEYTDFSQFETPSNSDLEAATPRPRKTLYPVRNPHGPKTRGLGYDKRILRDRVKFLI
B7: P1077_IXORI (other)
chain: GSKQLIGPQSSTNSIKAEFCDTNCTAGTNGIWNGCSGDCFCTHVGNSTEGRCMKITGFDEYPTSEAEE
B8: P1174_IXORI (other)
chain: LNNENELFSVEYCGANCTQQDNGSWTKCKGNCTCYHEDGKRYGLCLSTEYTDFTQFPKPTSEEIADASPRPKETNSH
B9: P1080_IXORI (other)
chain: SAGSKGSSAPQSSGDSVVAEFCDTNCTMKKDGKWTECNGDCFCVHVGNETVGRCMRLDGDYDYTSSKTTRRNKKTRNGLCRLDRNRTTVDYPERNTREP
B10: EVA3_RHISA (protein)
chain: LVSTIESRTSGDGADNFDVVSCNKNCTSGQNECPEGCFCGLLGQNKKGHCYKIIGNLSGEPPVVRR
B11: P1168_IXORI (other)
chain: GQDTDGKEKSDEYELFTVEYCGTNCTQLENGSWTACTGKNGTCRCFHENDKKVGLCLSTEYTDFSEYPDPNSEEIKAASPLP
B12: P1096_IXORI (other)
chain: HTTVTGSVEGKPNNPNEDIEVSYCRMNCTVENGVSSACSGDCVCVHRDNEPNGICVEITYFGDFGDPSQDPSIDEAAPRESVSKRRSNGES
B13: P675_IXORI (other)
chain: GSNQLSGPQSSANSNDAVFCDTNCTQGTDGAWSGCRGDCFCVHVGNSTEGRCIELIGDFDYSTPGAED
B14: P1229_IXORI (other)
chain: DDEFFTVDYCGMNCTLQQDGSWTPCTQKNAECKCYHESGSSVGLCLSTAYTDFNQFGDPNNSDLDAATPRHPDASSR
B15: P1090_IXORI (other)
chain: GSKELSGPESSENSIEAAFCDTNCTEGTDGVWSGCSAGCFCVHVGNSTVGRCMTFNGVDGG
B16: P1132_IXORI (other)
chain: LSDEDELFSVEYCGTNCTKQDTGSWTTCSGNCTCYHEDGKKVGLCLSTEYTDFTKFPKPTSEEIANARPLPKREKTLN
B17: P1128_IXORI (other)
chain: KDDEHFSVDYCGMNCTQQEDGSWTACSGRNEECRCYHESGKKNGLCLSTTYIDFSQYGNPSDSDIAAASPRP
B18: P1127_IXORI (other)
chain: AGKDDEHFSVDYCGMNCTQQEDGSWTACSGRNGECRCYHESGKRSGLCLSTTYIDFSEYGNLSDSDIAAASPRLSMKESH
B19: P458_IXORI (other)
chain: GSKQPGAAGSSSDSVEAVFCPTNCTKGTNGAWSGCSDDCICVHVGENTEGSCMKFSGDYDYPTPEA
B20: P1170_IXORI (other)
chain: LGDEDQLFSVEYCGTNCTQQDDGKWTPCSGKNGKCKCYHEDGKRYGLCLYTEYTDFSQYPNPEGSEIENTRPRP
B21: P1124_IXORI (other)
chain: DSKGTSDSQDSTKSIKVDFCETNCTKTDGGWTGCTGDCICVSVGDSIEGRCMDFG
B22: P1074_IXORI (other)
chain: GSKESSAHQSSDDSIKAEFCDAKCTMKTDGKWTQCHGGCFCVHVGNETEGRCMRLDGDYDYPSTQPEE
B23: P1162_IXORI (other)
chain: LNDEELFTVDYCGTNCTQQPNGSWTTCPGNCSCYHEDGKTDGFCLSTEYTDFTQFPNLTSEEMDAATPRPE
B24: P1172_IXORI (other)
chain: B23 chain with N2H, D3E, E4D, L6I, Q18K, P20S
B25: P1104_IXORI (other)
chain: ESKEASASQGPGKSFKVEFCETNCTENNGVWSGCTGDCICVSVGDSKEGRCMDLGDKVIDTPVAQG
B26: P1086_IXORI (other)
chain: GSKGQRASQVSETSITAEFCDTSCTQGTDKTWSGCSGDCFCVHVGNDTEGRCMRWDGDYPSAEEEE

Columns and labels:
Assay in all cases: BLI
[1] = biological target: CXCL2
[2] = biological target: CXCL5
[3] = biological target: CXCL6
[4] = biological target: CXCL13
[5] = biological target: CXCL3_HUMAN (human, UniProt P19876 35-107)
CXCL3_HUMAN, sequence (P19876 35-107): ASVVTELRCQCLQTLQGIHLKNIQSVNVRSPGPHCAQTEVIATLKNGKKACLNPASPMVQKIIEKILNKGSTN

[6] = biological target: CXCL1_HUMAN (human, UniProt P09341 35-107)
CXCL1_HUMAN, sequence (P09341 35-107): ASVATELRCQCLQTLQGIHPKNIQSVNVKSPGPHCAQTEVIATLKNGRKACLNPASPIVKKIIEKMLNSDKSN

[7] = biological target: T1, CXCL11_HUMAN
[8] = biological target: CXCL10_HUMAN (human, UniProt P02778 22-98)
CXCL10_HUMAN, sequence (P02778 22-98): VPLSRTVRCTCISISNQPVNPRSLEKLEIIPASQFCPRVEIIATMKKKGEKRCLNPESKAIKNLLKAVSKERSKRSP

[9] = biological target: CXCL4
[10] = biological target: CXCL8_HUMAN (human, UniProt P10145 28-99)
CXCL8_HUMAN, sequence (P10145 28-99): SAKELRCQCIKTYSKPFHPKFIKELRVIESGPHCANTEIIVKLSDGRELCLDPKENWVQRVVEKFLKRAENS

| Binder | Kd [1] | Kd [2] | Kd [3] | Kd [4] | Kd [5] | Kd [6] | Kd [7] | Kd [8] | Kd [9] | Kd [10] |
| --- | --- | --- | --- | --- | --- | --- | --- | --- | --- | --- |
| B1 | 68.3 nM | 39.2 nM | 9.24 nM | 255 nM | 43.8 nM | 6.35 nM | 16.7 nM |  |  |  |
| B2 | 185 nM | 50.8 nM | 15.2 nM | 714 nM | 55.9 nM | 49.9 nM | 102 nM | 380 nM |  |  |
| B3 | 6.48 nM | 21.1 nM | 7.28 nM | 39.5 nM | 5.04 nM | 3.09 nM | 12.4 nM | 133 nM | 148 nM |  |
| B4 |  |  |  |  |  |  |  |  |  | 110 nM |
| B5 | 149 nM |  |  |  |  | 12.9 nM |  |  |  | 129 nM |
| B6 |  |  |  |  |  | 27.3 nM |  |  |  |  |
| B7 | 264 nM | 55.7 nM | 29.3 nM |  | 16 nM | 7.53 nM | 538 nM |  |  |  |
| B8 |  |  |  |  |  | 15.4 nM |  |  |  | 81.7 nM |
| B9 | 392 nM | 56.6 nM | 11 nM | 1110 nM | 124 nM | 55.1 nM | 73.3 nM | 1260 nM | 2310 nM |  |
| B10 |  |  |  |  | 7.37 nM | 5.73 nM |  |  |  | 2.57 nM |
| B11 | 29.9 nM |  |  |  |  | 5.91 nM |  |  |  | 20.7 nM |
| B12 |  |  |  |  |  |  |  |  |  | 44.7 nM |
| B13 | 24.8 nM | 34.2 nM | 7.68 nM | 582 nM | 35.7 nM | 9.99 nM | 7.73 nM | 3120 nM | 422 nM |  |
| B14 |  |  |  |  |  | 13.4 nM |  |  |  | 30.7 nM |
| B15 | 3.03 nM | 43 nM | 2.82 nM | 12.5 nM | 7.67 nM | 3.55 nM | 3.85 nM | 23.9 nM |  |  |
| B16 | 18.6 nM | 152 nM |  |  |  | 11.9 nM |  |  |  | 32.8 nM |
| B17 | 5.57 nM | 62.2 nM |  |  | 38.5 nM | 0.722 nM |  |  |  | 2.3 nM |
| B18 | 27.8 nM | 26.6 nM |  |  | 68.8 nM | 1.42 nM |  |  |  | 13.3 nM |
| B19 | 4.55 nM | 19.1 nM | 4.97 nM | 13.8 nM | 7.83 nM | 16.6 nM |  |  |  |  |
| B20 |  |  |  |  |  | 59.6 nM |  |  |  | 12.3 nM |
| B21 | 13.8 nM | 26.4 nM | 231 nM | 256 nM | 8.84 nM | 7.61 nM |  |  |  |  |
| B22 |  | 42.7 nM |  | 95.8 nM | 24 nM | 27.8 nM | 12 nM | 40.7 nM | 157 nM |  |
| B23 | 14.4 nM | 32.1 nM |  |  | 60.1 nM | 2.66 nM |  |  |  | 12.2 nM |
| B24 | 26 nM | 59.3 nM |  |  |  | 5.59 nM |  |  |  | 26.7 nM |
| B25 | 82.3 nM | 245 nM | 34.3 nM | 220 nM | 43.7 nM | 14.4 nM |  |  |  |  |
| B26 | 34 nM | 26 nM | 10.7 nM | 22.7 nM | 15.2 nM | 11.4 nM |  | 18.7 nM |  |  |
